One substance from US20090175974A1 can be followed below.

The experiment addresses TmCad1(EC12-cyto), partial Tenebrio molitor cadherin from extracellular domain 12 through the end of the cytoplasmic domain, expressed on insect cells (Tenebrio molitor). Nature of the experiment: cell-based or functional assay.

In the case of “Cry3Aa protoxin purified from sporulated cultures of Bacillus thuringiensis var. tenebrionis (from UniProt P0A379 1-644)”, the cytotoxicity (propidium iodide staining of GFP-positive transfected Hi5 cells, flow cytometry) turned out to be 25% and the cytotoxicity (propidium iodide staining of GFP-positive transfected S2 cells, flow cytometry) was 40%.
